Assays:
Assay in all cases: SPR
[1] = target: T1, 3FTx-L15 (recombinant long-chain three-finger α-neurotoxin variant)
T1 chain: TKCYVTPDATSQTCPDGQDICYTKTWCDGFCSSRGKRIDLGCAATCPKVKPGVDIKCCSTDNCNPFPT

[2] = target: T2, 3FTx-L2 (recombinant long-chain three-finger α-neurotoxin variant)
T2 chain: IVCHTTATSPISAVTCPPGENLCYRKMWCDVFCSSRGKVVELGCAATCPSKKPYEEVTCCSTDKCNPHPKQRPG

[3] = target: m7
[4] = target: 3FTx-L8
[5] = target: m6

B1: 95Mat5 (human IgG) (antibody, V domains shown)
VH: QVQLVQSGAEVKKPGSSVKVSCKASGGTFSSYAISWVRQAPGQGLEWMGGYIPIFGTANYAQKFQGRVTITADESTSTAYMELSSLRSEDTAVYYCARIPLRWYESGPYESGVFDYWGQGTLVTVSS
VL: not shown
Kd [1]: 610 pM | Kd [2]: 720 pM | Kd [3]: 240 pM | Kd [4]: < 10 pM | Kd [5]: 110 pM

— PMC7617732 (2024)
